{"source": "patent US20260109758A1", "about": "(BIOSION, published 2026)", "key": {"[1]": {"molecular_target": "T1, biotin-labeled human TSLP-Fc (human, biotin-labeled)", "T1 construct": "also called TSLP-Fc protein; TSLP-Fc-biotin", "assay": "cell-based blocking FACS: antibody pre-mixed with biotin human TSLP-Fc; blocked binding to cell-surface TSLPR/IL7Ra on HEK293T-TSLPR/IL7R/STAT5-Luc 5C5 cells", "method": "(§1) The cells were prepared following the instruction of lipofectamine 3000 transfection reagent (Thermo Fisher), by transfecting HEK293T cells (ATCC® CRL-11268) with pCMV-T-P plasmids inserted with TSLPR coding sequence between EcoRI and Xba1 sites and pCMV3-SP plasmids inserted with IL7Ra coding sequence between HindIII and Xba1 sites as well as pGL4.52 [luc2P/STAT5RE/Hygro](Promega).\n(§2) The cells were harvested from cell culture flasks, washed twice and re-suspended in phosphate buffered saline (PBS) containing 2% v/v Fetal Bovine Serum (FACS buffer). […] Cells were washed twice with FACS buffer, and then added and incubated with 100 μL/well R-Phycoerythrin Streptavidin (1:500 dilution in FACS buffer, Jackson Immunoresearch, Cat #016-110-084) for 40 minutes at 4° C. in dark. Cells were washed twice and re-suspended in FACS buffer. Fluorescence was measured using a Becton Dickinson FACS Canto II-HTS equipment. Data was analyzed using Graphpad Prism and IC₅₀ values were reported."}, "[2]": {"molecular_target": "T2, recombinant human TSLP-his (human, UniProt Q969D9 29-159, biotin-labeled in the ELISAs)", "T2 construct": "In-house made; not shown: His tag at the C-terminus", "assay": "competitive ELISA: antibody pre-mixed with biotin human TSLP-his; blocked binding to coated TSLPR-Fc/IL7Ra-Fc", "method": "Briefly, 100 μL human TSLPR-Fc proteins (SEQ ID NO: 34-SEQ ID NO: 38 fusion, prepared in-house) at 1 μg/mL in PBS, and 100 μL human IL7Ra-Fc proteins (SEQ ID NO: 35-SEQ ID NO: 38 fusion, prepared in-house) at 1 μg/mL in PBS were coated on 96-well micro plates overnight at 4° C. The next day, plates were washed with wash buffer (PBS+0.05% Tween-20, PBST), and blocked with 5% w/v non-fatty milk in PBST for 2 hours at 37° C. Plates were then washed again using wash buffer.\nAfter incubation at 37° C. for 40 minutes, plates were washed 4 times using wash buffer. […] Plates were washed again using wash buffer. Finally, TMB was added and the reaction was stopped using 1M H₂SO₄. The absorbance was read on a microplate reader using dual wavelength mode with 450 nm for TMB and 630 nm as the reference wavelength, then the OD (450-630) values were plotted against the antibody concentration. Data was analyzed using Graphpad Prism and IC₅₀ values were reported."}, "[3]": {"molecular_target": "T2, recombinant human TSLP-his", "assay": "capture ELISA: antibody captured on anti-human IgG Fc F(ab')2, biotin human TSLP-his, SA-HRP", "method": "Briefly, 96-well micro plates were coated with 100 μL 2 μg/mL AffiniPure F(ab′)₂ Fragment Goat Anti-Human IgG, Fey fragment specific (Jackson Immuno Research, Cat #109-006-008) in PBS and incubated overnight at 4° C. Plates were washed 4 times with wash buffer (PBS+0.05% Tween-20, PBST) and then blocked with 200 μL/well blocking buffer (5% w/v non-fatty milk in PBST) for 2 hours at 37° C. […] After the final wash, the plates were incubated with 100 μL/well TMB (Innoreagents). The reaction was stopped 15 minutes later at room temperature with 50 μL/well 1M H₂SO₄, and the absorbance of each well was read on a microplate reader using dual wavelength mode with 450 nm for TMB and 630 nm as the reference wavelength. The OD (450-630) values were plotted against antibody concentration. Data was analyzed using Graphpad Prism and EC₅₀ values were reported."}, "[4]": {"molecular_target": "T1, biotin-labeled human TSLP-Fc", "assay": "cell-based blocking FACS: antibody pre-mixed with biotin human TSLP-Fc; blocked binding to cell-surface TSLPR/IL7Ra on HEK293T-TSLPR/IL7R/STAT5-Luc 5C5 cells", "method": "as §1, §2", "remark": "listed apart in the source"}}, "note": "Read-outs that look alike come from different tables or passages of the source.", "data": [{"binder": "hu1C5F12E9-V8(IgG4) (antibody, also called parental anti-TSLP antibody hu1C5F12E9-V8(IgG4)) heavy: not shown light: DIQMTQSPSSLSASVGDRVTITCRPTENIYSYLAWYQQKPGKAPKLLIYFARTLAEGVPSRFSGSGSGTDFTLTISSLQPEDFATYYCQHHYGTPWTFGGGTKVEIKRTVAAPSVFIFPPSDEQLKSGTASVVCLLNNFYPREAKVQWKVDNALQSGNSQESVTEQDSKDSTYSLSSTLTLSKADYEKHKVYACEVTHQGLSSPVTKSFNRGEC", "values": [{"measurement": "IC50", "setting": "[1]", "result": 1000, "unit": "pM"}, {"measurement": "IC50", "setting": "[2]", "result": 71.6, "unit": "pM"}, {"measurement": "EC50", "setting": "[3]", "result": 51.2, "unit": "pM"}, {"measurement": "IC50", "setting": "[4]", "result": 1040, "unit": "pM"}]}]}
